PMC9237115, “Hsp multichaperone complex buffers pathologically modified Tau” (Nature Communications, 2022)

Target: T1, Full-length human Tau (MAPT) (human, UniProt P10636-8 1-441)
T1 construct: Tau (MAPT), human, full length; 15N-labelled for the HSQC NMR experiments; also called unmodified Tau; source: E. coli BL21 (DE3), pNG2 vector, purified (boiling, ammonium sulfate, cation exchange, gel filtration)
Assay: NMR titration; 2D 1H-15N HSQC of 24 µM 15N-labelled Tau (or PTau^Cdk2), 5 °C, 25 mM HEPES pH 7.4/100 mM KCl/5 mM MgCl2/1 mM TCEP; chaperones added
Conditions: both partners purified

T1 sequence (P10636 other isoform, or with tags, fused parts or gaps): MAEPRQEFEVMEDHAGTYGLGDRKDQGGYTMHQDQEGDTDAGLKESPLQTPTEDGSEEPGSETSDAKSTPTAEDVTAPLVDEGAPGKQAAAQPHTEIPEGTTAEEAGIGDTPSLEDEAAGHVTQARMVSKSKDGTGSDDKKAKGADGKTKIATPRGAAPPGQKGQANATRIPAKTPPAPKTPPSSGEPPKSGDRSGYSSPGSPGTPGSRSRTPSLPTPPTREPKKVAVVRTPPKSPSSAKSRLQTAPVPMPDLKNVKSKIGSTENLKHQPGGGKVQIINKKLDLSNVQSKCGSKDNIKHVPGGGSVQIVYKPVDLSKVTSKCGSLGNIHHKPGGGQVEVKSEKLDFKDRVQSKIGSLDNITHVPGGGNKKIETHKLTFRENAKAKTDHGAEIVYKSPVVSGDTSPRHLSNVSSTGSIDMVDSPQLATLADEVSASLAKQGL

B1: p23 (PTGES3) (natural protein, human, UniProt Q15185 1-160, looked up)
chain: MQPASAKWYDRRDYVFIEFCVEDSKDVNVNFEKSKLTFSCLGGSDNFKHLNEIDLFHCIDPNDSKHKRTDRSILCCLRKGESGQSWPRLTKERAKLNWLSVDFNNWKDWEDDSDEDMSNFDRFSEMMNNMGGDEDVDLPEVDGADDDSQDSDDEKMPDLE
notes: p23 (PTGES3), human, full-length DNA in pET28a; source: E. coli Rosetta 2 (DE3), purified (Ni-NTA, thrombin cleavage, SEC); not shown: His6, N-terminal, cleaved
binding result: binds
